# Assay results as given in the Immune Epitope Database (IEDB).
# What was measured:
# HLA-A*02:01 [1] = experiment: IEDB peptide-MHC binding, purified MHC/competitive/radioactivity; filed as Kd, often an IC50 or EC50 that approximates it; ≥ and ≤ were set here for values at or beyond the usual limits of such assays
# HLA-A*02:17 = experiment: as above
# HLA-B*08:01 = experiment: as above
# HLA-B*57:01 [2] = experiment: as above
# HLA-B*58:01 [3] = experiment: as above
# HLA-A*02:03 [4] = experiment: as above
# HLA-A*02:06 = experiment: as above
# HLA-B*48:01 = experiment: IEDB peptide-MHC binding, purified MHC/direct/fluorescence; filed as Kd, often an IC50 or EC50 that approximates it; ≥ and ≤ were set here for values at or beyond the usual limits of such assays
# HLA-A*68:02 = experiment: IEDB peptide-MHC binding, purified MHC/competitive/radioactivity; filed as Kd, often an IC50 or EC50 that approximates it; ≥ and ≤ were set here for values at or beyond the usual limits of such assays; conditions: source organism: Dengue virus 4 Philippines/H241/1956
# HLA-A*32:01 = experiment: as above
# HLA-A*02:03 [5] = experiment: IEDB peptide-MHC binding, purified MHC/competitive/fluorescence; filed as Kd, often an IC50 or EC50 that approximates it; ≥ and ≤ were set here for values at or beyond the usual limits of such assays; conditions: source organism: human gammaherpesvirus 4
# HLA-A*02:01 [6] = experiment: as above; conditions: source organism: human gammaherpesvirus 4
# HLA-A*69:01 = experiment: IEDB peptide-MHC binding, purified MHC/direct/fluorescence; filed as Kd, often an IC50 or EC50 that approximates it; ≥ and ≤ were set here for values at or beyond the usual limits of such assays
# HLA-A*31:01 [7] = experiment: IEDB peptide-MHC binding, purified MHC/competitive/radioactivity; filed as Kd, often an IC50 or EC50 that approximates it; ≥ and ≤ were set here for values at or beyond the usual limits of such assays; conditions: source organism: Dengue virus 2 Jamaica/1409/1983
# HLA-A*02:01 [8] = experiment: IEDB peptide-MHC binding, purified MHC/direct/fluorescence; filed as Kd, often an IC50 or EC50 that approximates it; ≥ and ≤ were set here for values at or beyond the usual limits of such assays; conditions: source organism: Escherichia coli O157:H7
# HLA-B*27:05 = experiment: as above; conditions: source organism: Escherichia coli O157:H7
# HLA-A*03:01 = experiment: as above; conditions: source organism: Escherichia coli O157:H7
# HLA-B*58:01 [9] = experiment: as above; conditions: source organism: Escherichia coli O157:H7
# HLA-A*11:01 = experiment: as above; conditions: source organism: Escherichia coli O157:H7
# HLA-B*40:01 = experiment: as above; conditions: source organism: Escherichia coli O157:H7
# HLA-A*31:01 [10] = experiment: as above; conditions: source organism: Escherichia coli O157:H7
# HLA-A*01:01 = experiment: as above; conditions: source organism: Escherichia coli O157:H7
# HLA-B*15:17 = experiment: IEDB peptide-MHC binding, purified MHC/competitive/fluorescence; filed as Kd, often an IC50 or EC50 that approximates it; ≥ and ≤ were set here for values at or beyond the usual limits of such assays; conditions: source organism: Escherichia coli str. K-12 substr. DH10B
# HLA-B*57:01 [11] = experiment: as above; conditions: source organism: Escherichia coli str. K-12 substr. DH10B
# HLA-B*15:01 = experiment: as above; conditions: source organism: Escherichia coli str. K-12 substr. DH10B
# [12] = source organism: Dengue virus 1 Singapore/S275/1990
# [13] = source organism: Dengue virus 1 Brazil/97-11/1997
# [14] = source organism: Dengue virus 4 Dominica/814669/1981
# [15] = source organism: Dengue virus 3 Martinique/1243/1999
# [16] = source organism: Dengue virus 1 Nauru/West Pac/1974
# [17] = source organism: Dengue virus 4 Philippines/H241/1956
# [18] = source organism: Dengue virus 2 Jamaica/1409/1983
# [19] = source organism: Escherichia coli O157:H7
sequence,measurement,setting,value
LMLLALIAVL,Kd,HLA-A*02:01 [1]; [12],94.7 nM
same,Kd,HLA-A*02:17; [12],2170 nM
same,Kd,HLA-B*08:01; [13],2250 nM
ATGPILTLW,Kd,HLA-B*57:01 [2]; [14],8.07 nM
same,Kd,HLA-B*58:01 [3]; [14],13.1 nM
KLARASFIEV,Kd,HLA-A*02:03 [4]; [13],20.1 nM
same,Kd,HLA-A*02:06; [13],22 nM
same,Kd,HLA-A*02:01 [1]; [12],14.9 nM
same,Kd,HLA-A*02:17; [12],705 nM
ASSLLRNDVP,Kd,HLA-B*57:01 [2]; [15],11600 nM
same,Kd,HLA-B*58:01 [3]; [15],745 nM
YRNALSMMP,Kd,HLA-B*48:01; source organism: Yellow fever virus,≥ 20000 nM
TASLVMLLVH,Kd,HLA-B*57:01 [2]; [14],7390 nM
same,Kd,HLA-B*58:01 [3]; [14],1350 nM
SLLFKTSAGV,Kd,HLA-A*02:03 [4]; [13],287 nM
same,Kd,HLA-A*02:06; [13],35.8 nM
same,Kd,HLA-A*02:01 [1]; [16],21.6 nM
same,Kd,HLA-A*02:17; [16],820 nM
TIMAVLFVV,Kd,HLA-A*02:03 [4]; [17],46.7 nM
same,Kd,HLA-A*02:06; [17],127 nM
same,Kd,HLA-A*02:01 [1]; [17],92.6 nM
same,Kd,HLA-A*02:17; [17],789 nM
same,Kd,HLA-A*68:02,43.4 nM
KSYAQMWTL,Kd,HLA-B*57:01 [2]; [18],6.59 nM
same,Kd,HLA-A*32:01; [18],16.4 nM
same,Kd,HLA-B*58:01 [3]; [18],6.37 nM
SVRDRLARL,Kd,HLA-A*02:03 [5],12.3 nM
same,Kd,HLA-A*02:01 [6],407 nM
IMAVGLVSL,Kd,HLA-A*69:01; source organism: dengue virus type 4,≥ 20000 nM
same,Kd,HLA-A*02:03 [4]; [17],0.16 nM
same,Kd,HLA-A*02:17; [17],802 nM
GLLFMILTV,Kd,HLA-A*02:01 [1]; [12],42.9 nM
same,Kd,HLA-A*02:17; [12],14300 nM
same,Kd,HLA-A*32:01; [13],≥ 77800 nM
GQPIPIAGL,Kd,HLA-B*48:01; source organism: Mycobacterium tuberculosis C,299 nM
HSSAAQRRGR,Kd,HLA-B*57:01 [2]; [18],71.8 nM
same,Kd,HLA-B*58:01 [3]; [18],11300 nM
same,Kd,HLA-A*31:01 [7],24.1 nM
ILLTAVAPSM,Kd,HLA-A*02:01 [1]; [18],2490 nM
same,Kd,HLA-A*02:17; [18],5960 nM
same,Kd,HLA-B*08:01; [18],8710 nM
GLLCLTLFV,Kd,HLA-A*02:06; [17],16.4 nM
same,Kd,HLA-A*02:01 [1]; [17],2.44 nM
same,Kd,HLA-A*02:17; [17],8.47 nM
FLNEDHWFS,Kd,HLA-A*02:01 [1]; [18],4 nM
same,Kd,HLA-A*02:17; [18],185 nM
VSRDFDDVY,Kd,HLA-A*02:01 [8],≥ 20000 nM
same,Kd,HLA-A*69:01; [19],≥ 20000 nM
same,Kd,HLA-B*27:05,≥ 20000 nM
same,Kd,HLA-A*03:01,≥ 20000 nM
same,Kd,HLA-B*58:01 [9],≥ 20000 nM
same,Kd,HLA-A*11:01,≥ 20000 nM
same,Kd,HLA-B*40:01,≥ 20000 nM
same,Kd,HLA-A*31:01 [10],≥ 20000 nM
same,Kd,HLA-B*48:01; [19],≥ 20000 nM
same,Kd,HLA-A*01:01,18600 nM
same,Kd,HLA-B*15:17,≥ 20000 nM
same,Kd,HLA-B*57:01 [11],792 nM
same,Kd,HLA-B*15:01,244 nM
RRYGGGLVR,Kd,HLA-B*48:01; source organism: West Nile virus,≥ 20000 nM
